Measurements: patent publication US20180244758A1 (MAPP BIOPHARMACEUTICAL, published 2018)

T1: RESTV GP on rVSV particles (Reston virus (RESTV), UniProt Q66799 34-677)
T1 sequence: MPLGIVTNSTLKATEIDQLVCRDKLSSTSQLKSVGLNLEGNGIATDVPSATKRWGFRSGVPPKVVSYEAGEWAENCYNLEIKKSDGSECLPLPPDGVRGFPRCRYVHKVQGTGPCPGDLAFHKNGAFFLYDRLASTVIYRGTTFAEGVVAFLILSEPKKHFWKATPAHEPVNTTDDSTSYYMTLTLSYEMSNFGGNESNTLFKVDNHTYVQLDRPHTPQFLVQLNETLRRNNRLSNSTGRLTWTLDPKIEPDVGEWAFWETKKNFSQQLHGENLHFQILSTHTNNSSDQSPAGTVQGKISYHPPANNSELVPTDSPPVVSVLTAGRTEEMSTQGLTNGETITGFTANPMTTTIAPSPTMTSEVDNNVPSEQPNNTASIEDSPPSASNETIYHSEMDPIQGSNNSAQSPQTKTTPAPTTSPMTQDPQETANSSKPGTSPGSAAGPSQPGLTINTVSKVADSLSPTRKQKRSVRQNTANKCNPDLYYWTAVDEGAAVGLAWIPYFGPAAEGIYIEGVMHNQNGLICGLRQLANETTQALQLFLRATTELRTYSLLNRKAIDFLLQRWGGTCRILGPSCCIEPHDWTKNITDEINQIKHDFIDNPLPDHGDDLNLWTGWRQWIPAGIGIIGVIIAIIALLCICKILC

T2: RESTV GP (Reston virus (RESTV), UniProt Q66799 34-638)
T2 sequence: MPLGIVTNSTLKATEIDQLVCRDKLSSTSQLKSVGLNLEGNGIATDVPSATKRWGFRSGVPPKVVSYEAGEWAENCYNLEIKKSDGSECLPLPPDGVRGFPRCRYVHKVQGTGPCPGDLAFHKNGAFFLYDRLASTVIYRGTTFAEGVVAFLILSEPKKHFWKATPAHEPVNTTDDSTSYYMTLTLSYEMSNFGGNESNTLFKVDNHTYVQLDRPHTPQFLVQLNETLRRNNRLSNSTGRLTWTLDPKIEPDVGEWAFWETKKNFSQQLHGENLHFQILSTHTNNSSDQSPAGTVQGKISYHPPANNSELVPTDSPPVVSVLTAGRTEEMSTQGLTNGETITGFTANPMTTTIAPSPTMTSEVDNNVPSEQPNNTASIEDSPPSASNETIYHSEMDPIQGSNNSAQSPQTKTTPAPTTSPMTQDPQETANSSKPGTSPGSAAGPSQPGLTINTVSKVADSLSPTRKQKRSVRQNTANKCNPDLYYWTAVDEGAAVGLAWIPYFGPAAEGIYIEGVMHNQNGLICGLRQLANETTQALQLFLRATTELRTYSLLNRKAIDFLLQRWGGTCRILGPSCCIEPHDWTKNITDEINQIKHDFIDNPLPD

T3: SUDV GP on rVSV particles (Sudan virus (SUDV), UniProt Q66814 33-676)
T3 sequence: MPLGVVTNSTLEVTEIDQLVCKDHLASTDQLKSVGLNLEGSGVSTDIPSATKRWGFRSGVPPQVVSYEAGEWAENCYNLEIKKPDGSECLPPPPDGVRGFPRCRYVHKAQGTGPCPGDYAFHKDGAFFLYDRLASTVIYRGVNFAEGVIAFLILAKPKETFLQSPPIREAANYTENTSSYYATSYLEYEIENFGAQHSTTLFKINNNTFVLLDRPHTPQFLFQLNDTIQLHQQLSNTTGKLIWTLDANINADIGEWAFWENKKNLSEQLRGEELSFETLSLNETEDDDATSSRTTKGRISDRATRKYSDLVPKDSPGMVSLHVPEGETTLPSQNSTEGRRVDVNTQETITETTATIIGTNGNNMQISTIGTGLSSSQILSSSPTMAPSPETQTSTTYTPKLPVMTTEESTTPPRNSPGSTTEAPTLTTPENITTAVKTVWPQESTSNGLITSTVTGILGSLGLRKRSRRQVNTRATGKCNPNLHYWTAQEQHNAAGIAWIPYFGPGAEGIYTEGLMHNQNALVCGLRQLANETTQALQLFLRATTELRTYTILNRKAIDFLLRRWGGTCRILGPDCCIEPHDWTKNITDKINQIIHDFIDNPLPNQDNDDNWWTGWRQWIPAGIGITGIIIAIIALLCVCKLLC

T4: TAFV GP on VSV pseudotype particles (Tai Forest virus (TAFV), UniProt Q66810 33-676)
T4 sequence: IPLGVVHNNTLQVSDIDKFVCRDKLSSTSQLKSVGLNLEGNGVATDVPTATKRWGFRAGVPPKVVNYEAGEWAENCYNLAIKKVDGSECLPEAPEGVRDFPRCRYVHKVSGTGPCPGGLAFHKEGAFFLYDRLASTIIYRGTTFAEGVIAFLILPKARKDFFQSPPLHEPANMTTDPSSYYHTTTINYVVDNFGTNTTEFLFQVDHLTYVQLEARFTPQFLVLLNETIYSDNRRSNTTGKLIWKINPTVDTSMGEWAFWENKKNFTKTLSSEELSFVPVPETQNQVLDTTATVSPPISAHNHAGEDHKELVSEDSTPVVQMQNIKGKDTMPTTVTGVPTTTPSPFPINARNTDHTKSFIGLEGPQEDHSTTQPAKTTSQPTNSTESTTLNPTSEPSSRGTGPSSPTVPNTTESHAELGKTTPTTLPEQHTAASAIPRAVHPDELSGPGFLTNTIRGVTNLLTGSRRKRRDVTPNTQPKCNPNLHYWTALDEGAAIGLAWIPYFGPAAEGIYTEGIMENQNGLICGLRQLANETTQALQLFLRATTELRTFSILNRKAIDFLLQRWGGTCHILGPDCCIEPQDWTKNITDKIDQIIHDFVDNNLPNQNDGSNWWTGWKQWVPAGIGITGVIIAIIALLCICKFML


Tests used:
[1] = molecular target: T1, RESTV GP on rVSV particles; assay: cell-based or functional assay
RESTV GP = molecular target: T2, RESTV GP; assay: ELISA, GP antigen coated
[2] = molecular target: GP of authentic (wild-type) BDBV (Bundibugyo virus (BDBV)); assay: cell-based or functional assay
[3] = molecular target: T3, SUDV GP on rVSV particles; assay: cell-based or functional assay
[4] = molecular target: T4, TAFV GP on VSV pseudotype particles; assay: cell-based or functional assay
[5] = molecular target: T1, RESTV GP on rVSV particles; assay: cell-based or functional assay; remark: listed apart in the source

Binder | Neutralization (VSV-GP IC50, nM) [1] | binding result (RESTV GP) | Microneut. WT IC50 [2] | IC50 (nM), neutralization of rVSV-GP [3] | IC50 (nM), neutralization of rVSV-GP [4] | IC50 (nM), neutralization of rVSV-GP [5]
mAb PE-05 (antibody, V domains shown) VH: QVQLQESGGGLVKPGRSLRLSCTASGFTFGDYAMSWFRQAPGKGLEWVGFLRSKAYGGTAEYAASVKGRFTMSRDDSKSIAYLQMNSLKTEDTAVYFCTRDGFRGSSWGYSYYGMDVWGQGTTVTVSS VL: not shown | 22 nM | – | – | – | – | –
mAb PE-16 (antibody, V domains shown) VH: QVQLVQSGAEVTKPGASVKVSCKASGYTFTTYYMHWVRQAPGQGLEWVGIINPSGGITRYAQKFQGRVTLTRDTSTTTVYMELSSLRSEDTAVYYCARDRYPVLFATDYGMDVWGQGTTVTVSS VL: DIVMTQSPATLSLSPGERATLSCRASQSVSGYLAWYQQKPGQAPRLLIYDASNRATGIPARFSGSGSGTDFTLTISSLEPEDFAVYYCQQRSIWPPGVTFGGGTKVEIK | – | no binding (tested: 0.2 µg/ml) | 0.2 nM | – | – | –
mAb PE-87 (antibody, V domains shown) VH: QVQLVQSGVTLVQPGGSLRVSCAASGFTFSSYAMSWVRQAPGKGLEWVSAISGLGGSTYYADSVKGRFTISRDNSKNTLYLQMNSLRAEDTAVYYCAKDHRVWAAGYHFDYWGQGALVTVSS VL: DIVLTQSPSTLSASVGDRVTITCRASQSISSWLAWYQQKPGEAPKLLISDASSLESGVPSRFSGSGSGTEFTLTISSLQPDDFATYYCQQYYSSPTFGGGTKVEIK | 0.2 nM | – | 0.4 nM | 0.8 nM | 0.9 nM | 0.1 nM
mAb PE-24 (antibody, V domains shown) VH: EVQLVESGGGLVQPGGSLRLSCAASGFTFSSYAMSWVRQAPGKGLEWVSEISGLGGSTYYADSAKGRFTISRDNSKSTLYLQMNSLRAEDTAVYYCAKDHRVWAPGYYFDHWGQGTLVTVSS VL: DIVLTQSPSTLSASVGDRVTITCRASQSISSWLAWYQQKPGKAPKLLIYDASSLESGVPSRFSGSGSGTEFTLTISSLQPDDFATYFCQQYNRSPTFGGGTKVEIK | 0.2 nM | – | 0.3 nM | – | – | –
mAb PE-47 (antibody, V domains shown) VH: EVQLVESGGGLVKPGGSLRLSCAASGFTFSNAWMSWVRQAPGEGLEWVGRIKSKTDGGTIDYAAPVKGRFTISRDDSKNTVYLQMTSLKTEDTAVYYCTTYTEDMQYFDWLLRGGETFDYWGQGTLVTVSS VL: DIQMTQSPSSLSASVGDRVTITCRASQYISTYLNWYQQKPGKAPKLLIYAAYNLQSGVPSRFSGSGSGTDFTLTISSLQPEDFATYYCQQSYSTPGRYTFGQGTKVEIK | – | – | 0.5 nM | – | – | –
